B1: TPR t1 (parent)
chain: GACCAAUCUGCCCUCAGAGCUCGAGAACAUCUUCGGAUGCAGAGGAGGCAGGCUUCGGUGGCGCGAUAGCGCCAACGUCCUCAACCUCCAAUGCAUCCCACCACAUGAUGAUGCCUGAAGAGCCUUGGUUUUUUG

The series covers variants of B1. Nature of the series: polymerase ribozyme fitness, log enrichment relative to wild type (log ratio); higher = more active; in vitro selection for triplet polymerase activity. The method in brief:
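Mutant libraries were PCR-built and transcribed for each subunit of a heterodimeric triplet polymerase ribozyme and selected for one round in triplicate at −7 °C, frozen, before gel excision of extended constructs and streptavidin-bead capture. Input and output libraries were Illumina-sequenced, keeping genotypes with ≥10 input reads and ≥1 read per output. Fitness is a logarithmic ratio of genotype to wild-type enrichment, in base 2, using inverse-variance-weighted replicate averages.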
As for A24G G52A A66U C73U A91G, the “polymerase ribozyme fitness (log ratio)” value is -4.6.

For A26U C72A U129A, the “polymerase ribozyme fitness (log ratio)” value is -4.07.

For G25A C40U G69C G93C C101U C104G C115U A118G, the “polymerase ribozyme fitness (log ratio)” value was -7.63.

Take A26U A95G: the “polymerase ribozyme fitness (log ratio)” value is -2.46.

Regarding A26G C28G, the “polymerase ribozyme fitness (log ratio)” value was -2.83.

Take A24U C56A G60A C123U U125A: the “polymerase ribozyme fitness (log ratio)” value was -5.92.

For the variant A27G C104A, the “polymerase ribozyme fitness (log ratio)” value was -2.31.

As to A27U C72G U78A, the “polymerase ribozyme fitness (log ratio)” value was -3.94.

With A26G C49A U55C C62U G63A A83C U109A G113A, the “polymerase ribozyme fitness (log ratio)” value was -6.66.

Take A26G A105G: the “polymerase ribozyme fitness (log ratio)” value is -4.04.

As for A24G C53U C62U C89U G113A, the “polymerase ribozyme fitness (log ratio)” value is -5.19.

With C28G C70A, the “polymerase ribozyme fitness (log ratio)” value is -4.55.

As for A27U G36C, the “polymerase ribozyme fitness (log ratio)” value is -3.53.

Consider A27G G60U, for which the “polymerase ribozyme fitness (log ratio)” value was -1.6.

A27G G60C: the “polymerase ribozyme fitness (log ratio)” value is -2.15.

As for A26G A29G C80G C86U A119G, the “polymerase ribozyme fitness (log ratio)” value is -3.74.

Consider A27C G51A C76G, for which the “polymerase ribozyme fitness (log ratio)” value is -5.75.

Take A27G U78C: the “polymerase ribozyme fitness (log ratio)” value is -2.35.

Take A26C G47U C56U U112C: the “polymerase ribozyme fitness (log ratio)” value was -5.64.

Consider C28A G120C, for which the “polymerase ribozyme fitness (log ratio)” value is -2.79.

As to A27U A43U G48A C88A C123A, the “polymerase ribozyme fitness (log ratio)” value is -4.03.

For the variant A27U A29C G35C A68U U109G A119G G127A, the “polymerase ribozyme fitness (log ratio)” value is -6.64.

Take A27U C82G U106A G120C: the “polymerase ribozyme fitness (log ratio)” value is -1.62.

For A26U C73U U81A, the “polymerase ribozyme fitness (log ratio)” value was -3.86.

For A24G U81A, the “polymerase ribozyme fitness (log ratio)” value was -2.64.

Turning to C28A G35C G61A A84C A103G C114A G117C, the “polymerase ribozyme fitness (log ratio)” value was -7.02.

With A27U C76U A100U G120C, the “polymerase ribozyme fitness (log ratio)” value was -3.8.

As to A26U C82G C115U, the “polymerase ribozyme fitness (log ratio)” value is -5.9.

For the variant A27C G39A G61A C94A U112G, the “polymerase ribozyme fitness (log ratio)” value is -4.85.

C28G A111U: the “polymerase ribozyme fitness (log ratio)” value is -2.62.

On to A26G G60C C86G, for which the “polymerase ribozyme fitness (log ratio)” value was -3.98.

For the variant A26G C89G C102U U112A G120A, the “polymerase ribozyme fitness (log ratio)” value is -5.43.

With A26U C56U C72U, the “polymerase ribozyme fitness (log ratio)” value was -3.04.

For A24G G45C, the “polymerase ribozyme fitness (log ratio)” value was -3.46.

For A26U U87G, the “polymerase ribozyme fitness (log ratio)” value is -2.62.

C28A G60A G110U G122A: the “polymerase ribozyme fitness (log ratio)” value was -0.649.

Turning to C28G C31U G58A G63A G117C, the “polymerase ribozyme fitness (log ratio)” value is -6.83.

As to A26U G69U C79G, the “polymerase ribozyme fitness (log ratio)” value is -3.29.

As to A24G U87G, the “polymerase ribozyme fitness (log ratio)” value was -2.03.

A26G C114U: the “polymerase ribozyme fitness (log ratio)” value was -3.27.

Consider A26G C72A C86G A111U G122U, for which the “polymerase ribozyme fitness (log ratio)” value was -3.76.

For A26G A29G C72G U78A A118U, the “polymerase ribozyme fitness (log ratio)” value was -3.07.

As for A27G C76U C89U G93A, the “polymerase ribozyme fitness (log ratio)” value was -3.34.

Consider A26U C53U, for which the “polymerase ribozyme fitness (log ratio)” value was -3.26.

For the variant A24G G61U C86G, the “polymerase ribozyme fitness (log ratio)” value is -3.34.

Regarding A27G G69C A90C, the “polymerase ribozyme fitness (log ratio)” value was -4.21.

For the variant A27C C89U, the “polymerase ribozyme fitness (log ratio)” value is -4.35.

For the variant A26U C98U, the “polymerase ribozyme fitness (log ratio)” value is -4.2.

Turning to A26G C28U A121G, the “polymerase ribozyme fitness (log ratio)” value is -0.559.

For A27C U32C G39A C98G, the “polymerase ribozyme fitness (log ratio)” value was -7.35.

Regarding A26U A66G, the “polymerase ribozyme fitness (log ratio)” value was -4.28.

For the variant A27U U54A U112C G122A, the “polymerase ribozyme fitness (log ratio)” value is -2.2.

Turning to A26G A27U G36A U112G U129G, the “polymerase ribozyme fitness (log ratio)” value is -5.51.

Regarding A27G A50G U81A, the “polymerase ribozyme fitness (log ratio)” value is -1.56.

For A26G G71A C88G G120C, the “polymerase ribozyme fitness (log ratio)” value was -2.52.

As for A27U C28U, the “polymerase ribozyme fitness (log ratio)” value is -2.59.

As for A24G G44U C64U U133G, the “polymerase ribozyme fitness (log ratio)” value is -3.26.

In the case of A26G G71A A84C C89U G93C C114U, the “polymerase ribozyme fitness (log ratio)” value is -6.05.

As to A27G A46U C102U C115A G120A, the “polymerase ribozyme fitness (log ratio)” value is -7.01.

As for A24G C49G, the “polymerase ribozyme fitness (log ratio)” value was -1.9.

Consider A26G A29G A66U C72G U78A A118U, for which the “polymerase ribozyme fitness (log ratio)” value is -3.89.

As to A27U C124U, the “polymerase ribozyme fitness (log ratio)” value was -0.949.

With A27U C53A C72U, the “polymerase ribozyme fitness (log ratio)” value was -3.4.

As for A26G C28G C104U, the “polymerase ribozyme fitness (log ratio)” value is -2.85.

Take A27U G71U C94A: the “polymerase ribozyme fitness (log ratio)” value is -4.88.

As for A26U C89A, the “polymerase ribozyme fitness (log ratio)” value was -6.44.

For A24G U54G G57C C72U C73G C124U, the “polymerase ribozyme fitness (log ratio)” value is -3.92.

Take G25U C72U G110U C114U: the “polymerase ribozyme fitness (log ratio)” value was -6.32.

G25C C70A: the “polymerase ribozyme fitness (log ratio)” value is -7.32.

Regarding A27G C49G G63U C89G G117C, the “polymerase ribozyme fitness (log ratio)” value is -7.01.

Regarding G23U G51U C56A G63C G69C C114A A121U, the “polymerase ribozyme fitness (log ratio)” value was -5.92.

With A27U U96G G110U, the “polymerase ribozyme fitness (log ratio)” value was -7.43.

With A26C A83C, the “polymerase ribozyme fitness (log ratio)” value is -5.16.

For the variant A24U G69U C114G, the “polymerase ribozyme fitness (log ratio)” value is -7.51.

With C28G A50U, the “polymerase ribozyme fitness (log ratio)” value was -4.17.

As for C28A G69C C124A, the “polymerase ribozyme fitness (log ratio)” value is -4.58.

As for A27U A46C U116C, the “polymerase ribozyme fitness (log ratio)” value is -6.31.

In the case of A24G G39C U92G C104U, the “polymerase ribozyme fitness (log ratio)” value was -5.73.

Regarding A27G A50U, the “polymerase ribozyme fitness (log ratio)” value was -2.6.

Regarding A24G C56G G113A G120A G128A, the “polymerase ribozyme fitness (log ratio)” value was -7.42.

A26G G77U: the “polymerase ribozyme fitness (log ratio)” value was -2.79.

For A27G U106G U112G, the “polymerase ribozyme fitness (log ratio)” value is -1.51.

As to A26U C40U C64U, the “polymerase ribozyme fitness (log ratio)” value was -3.97.

Take A26U U81A: the “polymerase ribozyme fitness (log ratio)” value was -4.77.

The record behind these values is the RNAGym collection of RNA variant scans (doi:10.1073/pnas.2313332121).
